Measured values from PMC2874908.
Like-named read-outs stand apart in the source and are kept apart here.

What was measured:
[1] = target: β-catenin (endogenous, CHO cells) (Chinese hamster (endogenous in CHO)) (UniProt G3H996); experiment: co-IP
[2] = target: β-catenin (endogenous, CHO cells) (Chinese hamster (endogenous in CHO)) (UniProt G3H996); experiment: co-IP; remark: listed apart in the source

## dynein (microtubule motor protein; endogenous, CHO cells) (complex)
[1]
  fold change of dynein with β-catenin, V13 cells against E-cadherin cells: 3 fold
[2]
  fold change of dynein with β-catenin, V13 cells against E-cadherin cells: 2 to 2.5 fold
